According to patent US20040192609A1:

What was measured:
[1] = target: gp120 of the HIV-1 isolate ADA (HIV-1); assay: scFv precipitated with Protein L-Sepharose, radiolabeled ADA gp120 with and without soluble CD4, densitometry
[2] = target: envelope glycoprotein of the R5-isolate ADA on pseudotyped HIV-1 (HIV-1); assay: cell-based or functional assay

Substance	enhancement of binding to gp120 by soluble CD4 [1] [fold]	EC50 of neutralization of ADA virus [2] [µg/mL]	further results
47e scFv (wt)	> 2	–	–
CD4 binding site antibody F105	–	0.2 to 0.5	–
antibody E51	–	< 0.05	–
antibody 17b	–	> 2	–
E51 scFv	–	–	increase of binding to gp120 in the presence of CD4 [1]: 40%
412d scFv (wt)	> 2	–	–
antibody 412d	–	0.2 to 0.5	–
17b scFv	> 2	–	–
